Consider 3 molecules from patent publication US20200102355A1.

The target in data set [1] is TST (BMC-T1 / HO-5812 with SpyTag inserted on the lumenal side, flanked by six residue glycine-serine linkers) (Haliangium ochraceum). Put plainly: calculated from fluorescence intensity of purified shells.
Data set [2] addresses TSC (BMC-T1 / HO-5812 with SpyCatcherΔN1ΔC2 inserted on the lumenal side, flanked by six residue glycine-serine linkers) (Haliangium ochraceum) (UniProt D0LHE3). Described as above.
For data set [3], the target named is STprobe (SpyTag-mTurquoise2-TEV protease cleavage site-tetracysteine motif-6xHis permeability probe).

TST (BMC-T1 / HO-5812 with SpyTag inserted on the lumenal side, flanked by six residue glycine-serine linkers) (Haliangium ochraceum), sequence (D0LHE3 whole entry): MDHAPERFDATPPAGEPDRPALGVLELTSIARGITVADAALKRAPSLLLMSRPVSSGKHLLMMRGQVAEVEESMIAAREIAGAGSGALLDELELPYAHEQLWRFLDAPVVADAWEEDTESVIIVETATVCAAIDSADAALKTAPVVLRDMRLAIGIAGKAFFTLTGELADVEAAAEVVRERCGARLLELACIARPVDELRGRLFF

On to SCcfp (6xHis-SpyCatcher-mTurquoise2), for which, in data set [1], the copies of cfp cargo per shell (copies per shell) is 58.
As for “STcfp (mTurquoise2 with N-terminal 13 residue SpyTag and C-terminal hexahistidine tag)”, the copies of cfp cargo per shell (copies per shell) in data set [2] is 73.

B1: tobacco etch virus protease (TEVp) (protein)
chain: GESLFKGPRDYNPISSTICHLTNESDGHTTSLYGIGFGPFIITNKHLFRRNNGTLLVQSLHGVFKVKNTTTLQQHLIDGRDMIIIRMPKDFPPFPQKLKFREPQREERICLVTTNFQTKSMSSMVSDTSCTFPSSDGIFWKHWIQTKDGQCGSPLVSTRDGFIVGIHSASNFTNTNNYFTSVPKNFMELLTNQEAQQWVSGWRLNADSVLWGGHKVFMSKPEEPFQPVKEATQLMN
Take B1: the “fluorescence emission shift (FRET of mTurquoise2 to FlAsH) reverted on TEVp addition, probe in uncapped shells” value in data set [3] is recorded as “Addition of the FlAsH reagent to the shells results in a fluorescence emission shift which is reverted upon TEVp addition”.
